For two proteins, Km and kcat results are on record in article PMC11955521, “A GTP-driven central carbon metabolism in the cellulolytic bacterium Ruminiclostridium cellulolyticum” (Communications Biology, 2025).

By Km is commonly meant the concentration of substrate that gives half-maximal velocity.

Substrate in data set [1]: Nc1nc2c(ncn2[C@@H]2O[C@H](COP(=O)(O)OP(=O)(O)O)[C@@H](O)[C@H]2O)c(=O)[nH]1
As to the kind of experiment: HPLC-RI of pyruvate. In kind it is biochemical, Ruminiclostridium cellulolyticum. The note with it: PEP 10 mM, no FBP, 20 mM MgCl2, 30 mM KCl, 25 mM HEPES pH 7.0, 37 °C. The source says: (§1) HPLC-RI of pyruvate on Pyruvate kinase (PK)

Substrate in data set [2]: C=C(OP(=O)(O)O)C(=O)O
As to the kind of experiment: HPLC-RI of pyruvate. The note with it: ADP 5 mM, no FBP, 20 mM MgCl2, 30 mM KCl, 25 mM HEPES pH 7.0, 37 °C, Hill fit, nH 1.32. The data set is classed as biochemical, Ruminiclostridium cellulolyticum.
Description: as §1

Substrate in data set [3]: Nc1ncnc2c1ncn2[C@@H]1O[C@H](COP(=O)(O)OP(=O)(O)O)[C@@H](O)[C@H]1O
As to the kind of experiment: HPLC-RI of pyruvate. The data set is classed as biochemical, Ruminiclostridium cellulolyticum. The conditions noted are these: PEP 10 mM, no FBP, 20 mM MgCl2, 30 mM KCl, 25 mM HEPES pH 7.0, 37 °C, Hill fit, nH 1.41.
Description: as §1

Substrate in the data set “purified protein”: CC(=O)O
As to the kind of experiment: purified protein. The note with it: reverse reaction, ATP 10 mM, 20 mM MgCl2, 25 mM HEPES pH 7.0, 37 °C.

Substrate in data set [4]: Nc1nc2c(ncn2[C@@H]2O[C@H](COP(=O)(O)OP(=O)(O)O)[C@@H](O)[C@H]2O)c(=O)[nH]1
As to the kind of experiment: HPLC-RI of products. The conditions noted are these: acetyl-P 5 mM, 20 mM MgCl2, 25 mM HEPES pH 7.0, 37 °C. The data set is classed as biochemical, Ruminiclostridium cellulolyticum. From the text:
(§2) HPLC-RI of products on Acetate kinase (AK)

Substrate in data set [5]: CC(=O)OP(=O)(O)O
As to the kind of experiment: HPLC-RI of products. The note with it: ADP 10 mM, 20 mM MgCl2, 25 mM HEPES pH 7.0, 37 °C. In kind it is biochemical, Ruminiclostridium cellulolyticum.
Description: as §2

Substrate in data set [6]: Nc1ncnc2c1ncn2[C@@H]1O[C@H](COP(=O)(O)OP(=O)(O)OP(=O)(O)O)[C@@H](O)[C@H]1O
As to the kind of experiment: HPLC-RI of products. The data set is classed as biochemical, Ruminiclostridium cellulolyticum. The conditions noted are these: reverse reaction, acetate 10 mM, 20 mM MgCl2, 25 mM HEPES pH 7.0, 37 °C.
Description: as §2

Substrate in data set [7]: Nc1ncnc2c1ncn2[C@@H]1O[C@H](COP(=O)(O)OP(=O)(O)O)[C@@H](O)[C@H]1O
As to the kind of experiment: HPLC-RI of products. The note with it: acetyl-P 5 mM, 20 mM MgCl2, 25 mM HEPES pH 7.0, 37 °C. The data set is classed as biochemical, Ruminiclostridium cellulolyticum.
Description: as §2

B1: Pyruvate kinase (PK) (Ruminiclostridium cellulolyticum H10) (protein)
chain: MRRTKIICTLGPASDNEDILRKMMLGGMSLARMNFSHGTHEEHKKRADLVKKIREELNLPIPLLLDTKGPEIRTGKFKNDQAILKENNEFILVNEDILGDETKCTITYKELYKDVSRGSKILINDGLVELEVTEIKNKDIYCRVLNGGAVGNHKGINVPGAEIKLPSLTEQDIDDIKFGIKNDFDIIAASFVRKASDVVEIRKVLEKNGGKDILIIAKIENREGIKNFNDILKVSDGIMVARGDLGVEIPVEEVPIVQKNIIEKCYQNGKPVITATQMLDSMIRNPRPTRAEASDVANAIFDGTSCVMLSGETAAGKYPIETIEVMAKIAEKAEKSMDYWNRFATARTELDTSVTNAISHATCTTALDLKAAAIITVTQSGHTARMIARFRPACPIIATTANPKVQRQLNLSWGVMPYLVGIAKTTDDMFDNGVEKALESGLVKNGDLAVITAGMPAGISGTTNTLKVHIVGRVLVQGVGIGTSSVTGELCVAQNTKEAMDKFTDGNIIVAPFTDNSMLPVIKRASAIVVEEHGQSCHAATVGLALDIPVILGAENATKILKAGSVVTVDSERGLVIRCN
notes: full-length, C-terminal His tag (pET28a), E. coli BL21(DE3), Ni-NTA and anion exchange
B1: the Michaelis-Menten constant (Km) in the data set “HPLC-RI of pyruvate [1]” stood at 900 ± 140 µM; in “HPLC-RI of pyruvate [2]”, 1560 ± 20 µM; in the data set “HPLC-RI of pyruvate [3]” it was 1870 ± 140 µM. In addition, the kcat is given as 977 ± 48 iu/µmol in the data set “HPLC-RI of pyruvate [1]”, 9212 ± 50 iu/µmol in “HPLC-RI of pyruvate [2]” and 9508 ± 328 iu/µmol in “HPLC-RI of pyruvate [3]”.

B2: Acetate kinase (AK) (Ruminiclostridium cellulolyticum H10) (protein)
chain: MKVLVINAGSSSLKYQLIDMKNETVLAKGLCDRIGIDNSFIKQSRGSEEAVILNKELKNHKDAIEAVISALTDDNMGVIKNMSEISAVGHRIVHGGEKFNSSVVIDENVMNAVRECIDVAPLHNPPNIIGIEACQQIMPNIPMVAVFDTTFHSSMPDYAYLYALPYELYEKYGIRKYGFHGTSHKYVAERASAMLDKSLNELKIITCHLGNGSSICAVNKGKSIDTSMGFTPLQGLAMGTRSGTIDPEVVTFLMEKENLDVKGVSKLLNKKSGVLGISGVSSDFRDLHAAADAGNSRAELAIEIFCYGVKKFIGEYIAVMNGVDAIVFTAGVGENNSVVRNMIISDMDFLGIKIDEEKNKLRGQEVDISTADAAVRTLVIPTNEELAIARETVRLVK
notes: as for B1
As to B2, the Michaelis-Menten constant (Km) in the data set “purified protein” was found to be 2370 ± 380 µM; in “HPLC-RI of products [4]” it was 1470 ± 130 µM; in “HPLC-RI of products [5]”, 1490 ± 200 µM; in the data set “HPLC-RI of products [6]”, 1470 ± 170 µM; in the data set “HPLC-RI of products [7]”, 1130 ± 210 µM. Besides, the kcat entry is given as “kcat = 12.85 ± 0.85 iu/umol” in “purified protein”; 35,365 ± 1,150 iu/µmol in the data set “HPLC-RI of products [4]”; 25,112 ± 1755 iu/µmol in the data set “HPLC-RI of products [5]”; 16.68 ± 0.74 iu/µmol in the data set “HPLC-RI of products [6]”; 25,437 ± 1668 iu/µmol in “HPLC-RI of products [7]”.
